This data set concerns the molecule itself. Nature of the data set: AUC.

Where only a bound is given, the exact number is not on record here.

Broadly, the stoichiometry N is the number of molecules, sites or subunits per partner or assembly.

B1: Mid1p construct M1-14 (residues 1–578) (domain or fragment, S. pombe, UniProt P78953 1-578, looked up)
chain: MKEQEFSYREAKDVSLDSKGLENSFLSSPNREKTPLFFEGNSNETSGYDQTKNFTHGDGDMSLGNLSELNVATDLLESLDLRSMYMHGYGHLDSSFSSQHSPDNRKRMSSTSVFKRINSEEEGRIPSLTYSAGTMNSTSSSTASLKGADIVADYETFNPDQNLAELSFDRSKSSRKRAVEVAEFSRAKTMSPLEYTVQHPYQSHNELSTNPARARAGSVPNLARIPSDVKPVPPAHLSASSTVGPRILPSLPKDTTEDNPALERVETTASLDMDYKPLEPLAPIQEAPVEDTSEPFSSVPEATLDDSDISTESLRKKVLAKMEAKRISSGSSYASTLRKVYDFSELSLPTNGKDYDELYLQSSRNSEPEISTIINDSLQQENMDEDISATSIPKSQAAYGHGSVTYHEVPRYNLTSASVGYSISSQRGRIKSSSTIDNLSAILSSEDLRHPSMQPVPGTKRTYSNYCENEPNKSSQSLVSSESHNVEGWNYSETGTVGFYDPSAEISASIDELRQSTPVARDSELLSRAHSFDLNRLDLPSQDKSTSYEVPNGTENQSPRPVTSLGFVNETFFEEKPK
On to B1, for which the “stoichiometry N” value was greater than 8.

For the origin of these results see PMC3469515 (Molecular Biology of the Cell, 2012).
